According to the supplement of paper PMC11246515:
± gives the standard deviation of the averaged measurements.

Test: total protein half-life in vivo (active degradation + dilution); higher = more stable protein
[1] = E. coli NCM3722 delta-clpP delta-lon delta-hslV, growth: N-lim chemostat, doubling time 6 h
[2] = E. coli NCM3722 delta-lon, growth: N-lim chemostat, doubling time 6 h
[3] = E. coli NCM3722 delta-smpB, growth: N-lim chemostat, doubling time 6 h
[4] = wild type E. coli NCM3722, growth: C-lim chemostat, doubling time 3 h
[5] = wild type E. coli NCM3722, growth: C-lim chemostat, doubling time 6 h
[6] = wild type E. coli NCM3722, growth: C-lim chemostat, doubling time 12 h
[7] = wild type E. coli NCM3722, growth: N-lim chemostat, doubling time 6 h
[8] = wild type E. coli NCM3722, growth: N-lim chemostat, doubling time 12 h
[9] = wild type E. coli NCM3722, growth: P-lim chemostat, doubling time 6 h
[10] = wild type E. coli NCM3722, growth: P-lim chemostat, doubling time 12 h
[11] = E. coli NCM3722 delta-clpP, growth: N-lim chemostat, doubling time 6 h
[12] = E. coli NCM3722 delta-hslV, growth: N-lim chemostat, doubling time 6 h

Sequence	total protein half-life in vivo [1]	total protein half-life in vivo [2]	total protein half-life in vivo [3]	total protein half-life in vivo [4]	total protein half-life in vivo [5]	total protein half-life in vivo [6]	total protein half-life in vivo [7]	total protein half-life in vivo [8]	total protein half-life in vivo [9]	total protein half-life in vivo [10]	total protein half-life in vivo [11]	total protein half-life in vivo [12]
MFKSTLAAMAAVFALSALSPAAMAAKGDPHVLLTTSAGNIELELDKQKAPVSVQNFVDYVNSGFYNNTTFHRVIPGFMIQGGGFTEQMQQKKPNPPIKNEADNGLRNTRGTIAMARTADKDSATSQFFINVADNAFLDHGQRDFGYAVFGKVVKGMDVADKISQVPTHDVGPYQNVPSKPVVILSAKVLP [P0AFL3]	5.17 ± 0.94 h	6.04 ± 0.29 h	5.59 ± 0.8 h	3.1 ± 0.19 h	4.98 ± 0.6 h	8.28 ± 1.4 h	5.46 ± 0.15 h	10.36 ± 0.074 h	5.31 ± 0.43 h	11.5 ± 0.59 h	–	–
MFLIITRDTMFFTAMKNILSKGNVVHIQNEEEIDVMLHQNAFVIIDTLMNNVFHSNFLTQIERLKPVHVIIFSPFNIKRCLGKVPVTFVPRTITIIDFVALINGSYCSVPEAAVSLSRKQHQVLSCIANQMTTEDILEKLKISLKTFYCHKHNIMMILNLKRINELVRHQHIDYLV	3.86 ± 0.062 h	3.74 ± 0.092 h	3.036 ± 0.0077 h	–	–	–	2.94 ± 0.13 h	8.12 h	–	4.78 h	3.81 h	3.24 ± 0.28 h
MFLINGHKQESLAVSDRATQFGDGCFTTARVIDGKVSLLSAHIQRLQDACQRLMISCDFWPQLEQEMKTLAAEQQNGVLKVVISRGSGGRGYSTLNSGPATRILSVTAYPAHYDRLRNEGITLALSPVRLGRNPHLAGIKHLNRLEQVLIRSHLEQTNADEALVLDSEGWVTECCAANLFWRKGNVVYTPRLDQAGVNGIMRQFCIRLLAQSSYQLVEVQASLEESLQADEMVICNALMPVMPVCACGDVSFSSATLYEYLAPLCERPN	5.13 ± 0.82 h	4.279 ± 0.035 h	3.89 ± 0.18 h	3.04 ± 0.24 h	5.58 ± 0.27 h	10.9 ± 0.86 h	3.82 ± 0.069 h	6.33 ± 0.35 h	6.45 ± 1.4 h	10.7 ± 1 h	3.87 ± 0.15 h	–
MFLVDSHCHLDGLDYESLHKDVDDVLAKAAARDVKFCLAVATTLPGYLHMRDLVGERDNVVFSCGVHPLNQNDPYDVEDLRRLAAEEGVVALGETGLDYYYTPETKVRQQESFIHHIQIGRELNKPVIVHTRDARADTLAILREEKVTDCGGVLHCFTEDRETAGKLLDLGFYISFSGIVTFRNAEQLRDAARYVPLDRLLVETDSPYLAPVPHRGKENQPAMVRDVAEYMAVLKGVAVEELAQVTTDNFARLFHIDASRLQSIR [P0AFQ7]	4.81 ± 0.12 h	3.76 ± 0.27 h	2.97 ± 0.21 h	2.46 ± 0.053 h	4.73 ± 0.61 h	9.89 ± 2.7 h	3.63 ± 0.31 h	5.34 ± 1.1 h	4.39 ± 0.14 h	7.55 ± 0.79 h	3.33 ± 0.04 h	3.06 ± 0.22 h
MFNGRPFPVDAFPKIIRNAIYEVEQHTQAPQGLIAASALGVISLACQNRIDVCRLNNLRGPVSLFLMTLAESGERKSTVDKLLMKPLYQLEEDLFEKYTHDLTAWRNDEAIFNIEKKALMSKLKSDIRRNKDHLATNERLKELLTTNPKAPVRFKFLFNDATPAAIKAHLCGHWRSVGIMSDEAGIIFNGYTLNELPFINKMWDGSIFTVERKNEPEKLIRDARITLSLMVQPNVFKGYIDRKGDMAKGIGFFARCLMCQPASTQGNRKISNPIFSNEHLPVFHQRLMEIVNESIIKINENNRICLRFSAEAERHWIEFYNQVESEMRMIGLLYDFKDYASKMAENMARLAALLHYFSGDGGDISVTAVKAAVEIVAWYIEEYIRLFSKKEEFSLDVSEADELYCWIKDYCTQKFSSCIKKNIILQFGPNKFRNRDKANELIRILISQNKIFISSWGKTKIINITHCVF	4.5 h	–	–	–	–	–	–	–	–	–	–	–
MFNNILVVCVGNICRSPTAERLLQRYHPELKVESAGLGALVGKGADPTAISVAAEHQLSLEGHCARQISRRLCRNYDLILTMEKRHIERLCEMAPEMRGKVMLFGHWDNECEIPDPYRKSRETFAAVYTLLERSARQWAQALNAEQV [P0AAB2]	5.46 h	1.13 h	–	–	–	–	–	–	–	–	–	–
MFNRIRISTTLFLILILCGILQIGSNGMSFWAFRDDLQRLNQVEQSNQQRAALAQTRAVMLQASTALNKAGTLTALSYPADDIKTLMTTARASLTQSTTLFKSFMAMTAGNEHVRGLQKETEKSFARWHNDLEHQATWLESNQLSDFLTAPVQGSQNAFDVNFEAWQLEINHVLEAASAQSQRNYQISALVFISMIIVAAIYISSALWWTRKMIVQPLAIIGSHFDSIAAGNLARPIAVYGRNEITAIFASLKTMQQALRGTVSDVRKGSQEMHIGIAEIVAGNNDLSSRTEQQAASLAQTAASMEQLTATVGQNADNARQASELAKNAATTAQAGGVQVSTMTHTMQEIATSSQKIGDIISVIDGIAFQTNILALNAAVEAARAGEQGRGFAVVAGEVRNLASRSAQAAKEIKGLIEESVNRVQQGSKLVNNAAATMIDIVSSVTRVNDIMGEIASASEEQQRGIEQVAQAVSQMDQVTQQNASLVEEAAVATEQLANQADHLSSRVAVFTLEEHEVARHESVQLQIAPVVS	–	–	> 8 h	1.87 ± 0.38 h	3.01 ± 0.33 h	4.13 ± 0.71 h	–	–	–	–	6.16 h	–
MFNRPNRNDVDDGVQDIQNDVNQLADSLESVLKSWGSDAKGEAEAARSKAQALLKETRARMHGRTRVQQAARDAVGCADSFVRERPWCSVGTAAAVGIFIGALLSMRKS [P0ADQ7]	5.92 ± 0.068 h	–	4.83 ± 0.087 h	2.37 ± 0.46 h	5.79 ± 0.34 h	9.97 ± 1.7 h	5.55 ± 0.094 h	11.3 ± 1.4 h	5.17 ± 0.21 h	10.8 ± 0.18 h	–	7.51 ± 0.67 h
MFPFRRNVLAFAALLALSSPVLAGKLAIVIDDFGYRPHNENQVLAMPSAISVAVLPDSPHAREMATKAHNSGHEVLIHLPMAPLSKQPLEKNTLRPEMSSDEIERIIRSAVNNVPYAVGINNHMGSKMTSNLFGMQKVMQALERYNLYFLDSVTIGNTQAMRAAQGTGVKVIKRKVFLDDSQNEADIRVQFNRAIDLARRNGSTIAIGHPHPATVRVLQQMVYNLPPDITLVKASSLLNEPQVDTSTPPKNAVPDAPRNPFRGVKLCKPKKPIEPVYANRFFEVLSESISQSTLIVYFQHQWQGWGKQPEAAKFNASAN	5.42 ± 0.15 h	–	4.79 h	3.38 h	–	11.2 ± 1.3 h	6.68 ± 0.97 h	9.34 h	–	8.02 h	6.23 h	6.09 ± 0.91 h
MFPPMWRRLIYHPDINYALRQTLVLCLPVAVGLMLGELRFGLLFSLVPACCNIAGLDTPHKRFFKRLIIGASLFATCSLLTQLLLAKDVPLPFLLTGLTLVLGVTAELGPLHAKLLPASLLAAIFTLSLAGYMPVWEPLLIYALGTLWYGLFNWFWFWIWREQPLRESLSLLYRELADYCEAKYSLLTQHTDPEKALPPLLVRQQKAVDLITQCYQQMHMLSAQNNTDYKRMLRIFQEALDLQEHISVSLHQPEEVQKLVERSHAEEVIRWNAQTVAARLRVLADDILYHRLPTRFTMEKQIGALEKIARQHPDNPVGQFCYWHFSRIARVLRTQKPLYARDLLADKQRRMPLLPALKSYLSLKSPALRNAGRLSVMLSVASLMGTALHLPKSYWILMTVLLVTQNGYGATRLRIVNRSVGTVVGLIIAGVALHFKIPEGYTLTLMLITTLASYLILRKNYGWATVGFTITAVYTLQLLWLNGEQYILPRLIDTIIGCLIAFGGTVWLWPQWQSGLLRKNAHDALEAYQEAIRLILSEDPQPTPLAWQRMRVNQAHNTLYNSLNQAMQEPAFNSHYLADMKLWVTHSQFIVEHINAMTTLAREHRALPPELAQEYLQSCEIAIQRCQQRLEYDEPGSSGDANIMDAPEMQPHEGAAGTLEQHLQRVIGHLNTMHTISSMAWRQRPHHGIWLSRKLRDSKA	6.2 ± 0.17 h	5.47 ± 0.38 h	5.02 ± 0.33 h	> 4 h	5.87 h	13.4 ± 0.3 h	6.05 ± 0.55 h	–	6.24 ± 0.091 h	12.2 ± 0.44 h	6.9 h	4.97 ± 0.47 h
MFQDNPLLAQLKQQLHSQTPRAEGVVKATEKGFGFLEVDAQKSYFIPPPQMKKVMHGDRIIAVIHSEKERESAEPEELVEPFLTRFVGKVQGKNDRLAIVPDHPLLKDAIPCRAARGLNHEFKEGDWAVAEMRRHPLKGDRSFYAELTQYITFGDDHFVPWWVTLARHNLEKEAPDGVATEMLDEGLVREDLTALDFVTIDSASTEDMDDALFAKALPDDKLQLIVAIADPTAWIAEGSKLDKAAKIRAFTNYLPGFNIPMLPRELSDDLCSLRANEVRPVLACRMTLSADGTIEDNIEFFAATIESKAKLVYDQVSDWLENTGDWQPESEAIAEQVRLLAQICQRRGEWRHNHALVFKDRPDYRFILGEKGEVLDIVAEPRRIANRIVEEAMIAANICAARVLRDKLGFGIYNVHMGFDPANADALAALLKTHGLHVDAEEVLTLDGFCKLRRELDAQPTGFLDSRIRRFQSFAEISTEPGPHFGLGLEAYATWTSPIRKYGDMINHRLLKAVIKGETATRPQDEITVQMAERRRLNRMAERDVGDWLYARFLKDKAGTDTRFAAEIVDISRGGMRVRLVDNGAIAFIPAPFLHAVRDELVCSQENGTVQIKGETVYKVTDVIDVTIAEVRMETRSIIARPVA	6.36 ± 1.1 h	4.57 ± 0.42 h	3.92 ± 0.095 h	2.74 ± 0.38 h	5.8 ± 0.41 h	10 ± 3.6 h	4.3 ± 0.15 h	7.65 ± 0.77 h	4.66 ± 0.14 h	8.07 ± 0.19 h	5.31 ± 0.54 h	4.41 ± 0.31 h
MFQKVDAYAGDPILTLMERFKEDPRSDKVNLSIGLYYNEDGIIPQLQAVAEAEARLNAQPHGASLYLPMEGLNCYRHAIAPLLFGADHPVLKQQRVATIQTLGGSGALKVGADFLKRYFPESGVWVSDPTWENHVAIFAGAGFEVSTYPWYDEATNGVRFNDLLATLKTLPARSIVLLHPCCHNPTGADLTNDQWDAVIEILKARELIPFLDIAYQGFGAGMEEDAYAIRAIASAGLPALVSNSFSKIFSLYGERVGGLSVMCEDAEAAGRVLGQLKATVRRNYSSPPNFGAQVVAAVLNDEALKASWLAEVEEMRTRILAMRQELVKVLSTEMPERNFDYLLNQRGMFSYTGLSAAQVDRLREEFGVYLIASGRMCVAGLNTANVQRVAKAFAAVM	4.07 ± 1.2 h	3.01 ± 0.049 h	2.676 ± 0.003 h	3.06 ± 0.56 h	4.92 ± 0.29 h	7.47 ± 0.87 h	2.62 ± 0.058 h	3.66 ± 0.17 h	5.28 ± 0.29 h	9.773 ± 0.058 h	2.43 ± 0.047 h	2.54 ± 0.061 h
MFRQLKKNLVATLIAAMTIGQVAPAFADSADTLPDMGTSAGSTLSIGQEMQMGDYYVRQLRGSAPLINDPLLTQYINSLGMRLVSHANSVKTPFHFFLINNDEINAFAFFGGNVVLHSALFRYSDNESQLASVMAHEISHVTQRHLARAMEDQQRSAPLTWVGALGSILLAMASPQAGMAALTGTLAGTRQGMISFTQQNEQEADRIGIQVLQRSGFDPQAMPTFLEKLLDQARYSSRPPEILLTHPLPESRLADARNRANQMRPMVVQSSEDFYLAKARTLGMYNSGRNQLTSDLLDEWAKGNVRQQRAAQYGRALQAMEANKYDEARKTLQPLLAAEPGNAWYLDLATDIDLGQNKANEAINRLKNARDLRTNPVLQLNLANAYLQGGQPQEAANILNRYTFNNKDDSNGWDLLAQAEAALNNRDQELAARAEGYALAGRLDQAISLLSSASSQVKLGSLQQARYDARIDQLRQLQERFKPYTKM	4.342 ± 0.022 h	4.52 ± 0.32 h	4.35 ± 0.05 h	2.7 ± 0.2 h	5.08 ± 0.19 h	9.19 ± 1.1 h	4.73 ± 0.033 h	8.19 ± 1.1 h	3.46 ± 0.47 h	7.12 ± 1.7 h	5.12 ± 1.1 h	4.86 ± 0.098 h
MFRRRGVTLTKALLTAVCMLAAPLTQAISVGNLTFSLPSETDFVSKRVVNNNKSARIYRIAISAIDSPGSSELRTRPVDGELLFAPRQLALQAGESEYFKFYYHGPRDNRERYYRVSFREVPTRNHTRRSPTGGVVSTEPVVVMDTILVVRPRQVQFKWSFDKVTGTVSNTGNTWFKLLIKPGCDSTEEEGDAWYLRPGDVVHQPELRQPGNHYLVYNDKFIKISDSCPAKPPSAD	4.58 h	4.37 h	4.89 ± 0.82 h	2.51 ± 0.53 h	3.37 h	9.74 h	3.84 h	6.84 h	–	9.993 ± 0.096 h	4.57 ± 0.28 h	3.66 h
